Data taken from the supplement of paper PMC7877785.
± gives the uncertainty stated by the source.

Experiment: self-splicing fitness, log relative to wild type (ln ratio); higher = more splicing; Tetrahymena group I intron in knt gene, E. coli kanamycin selection, DiMSum; sequences stand for … in CUCUCU…GGAGGGAAAAGUUAUCAGGCAUGCACCUGGUAGCUAGUCUUUAAACCAAUAGAUUGCAUCGGUUUAAAAGGCAAGACCGUCAAAUUGCGGGAAAGGGGUCAACAGCCGUUCAGUACCAAGUCUCAGGGGAAACUUUGAGAUGGCCUUGCAAAGGGUAUGGUAAUAAGCUGACGGACAUGGUCCUAACCACGCAGCCAAGUCCUAAGUCAACAGAUCUUCUGUUGAUAUGGAUGCAGUUCACAGACUAAAUGUCGGUCGGGGAAGAUGUAUUCUUCUCAUAAGAUAUAGUCGGACCUCUCCUUAAUGGGAGCUAGCGGAUGAAGUGAUGCAACACUGGAGCCGCUGGGAACUAAUUUGUAUGCGAAAGUAUAUUGAUUAGUUUUGGAGUACUCGUGGUCG
Method in brief: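 Six replicate transformations of E. coli BL21(DE3) with a pET-22b(+) library were grown overnight at 37°C or 30°C. The library randomised all eight P1ex-region intron nucleotides, the intron lying in the knt kanamycin-resistance gene, and plates were LB agar with or without 25 μg/mL kanamycin plus 100 μg/mL carbenicillin, 50 μM IPTG and 0.2% rhamnose. Pooled colonies were amplicon-sequenced on an Illumina HiSeq 2500, and fitness is the DiMSum error-weighted combination of wild-type-normalised replicate fold changes, kanamycin versus none.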

Sequence | self-splicing fitness (ln) (30 °C) | self-splicing fitness (ln) (37 °C)
GGUUAGCAAUAUUACGACAA | 0.354 ± 0.25 | 0.974 ± 0.3
GGUUAGCAAUAUUACGACCG | -0.946 ± 0.25 | 1.43 ± 0.36
GGUUAGCAAUAUUACGCAGG | -3.31 ± 0.24 | -2.05 ± 0.2
GGUUAGCAAUAUUACGCAUU | -0.941 ± 0.075 | -0.185 ± 0.086
GGUUAGCAAUAUUACGCGAA | -0.818 ± 0.25 | -0.0649 ± 0.35
GGUUAGCAAUAUUACGGAAC | -1.48 ± 0.3 | -0.799 ± 0.46
GGUUAGCAAUAUUACGGAUA | -1.23 ± 0.14 | 0.704 ± 0.17
GGUUAGCAAUAUUACGGAUC | -1.53 ± 0.18 | 0.131 ± 0.28
GGUUAGCAAUAUUACGGCGG | -2.05 ± 0.15 | -1.68 ± 0.16
GGUUAGCAAUAUUACGGGAC | -3 ± 0.3 | -1.44 ± 0.21
GGUUAGCAAUAUUACGGGGG | – | -2.37 ± 0.44
GGUUAGCAAUAUUACGGUCG | -0.323 ± 0.13 | -0.0539 ± 0.18
GGUUAGCAAUAUUACGUAAU | -2.05 ± 0.22 | -0.725 ± 0.21
GGUUAGCAAUAUUACGUCAU | -1.03 ± 0.21 | 0.277 ± 0.21
GGUUAGCAAUAUUACGUCCA | -1.17 ± 0.3 | -0.199 ± 0.34
GGUUAGCAAUAUUACGUGAC | -2.98 ± 0.28 | -2.33 ± 0.34
GGUUAGCAAUAUUACGUGCU | -2.76 ± 0.46 | -2.35 ± 0.3
GGUUAGCAAUAUUACGUGUU | -1.43 ± 0.096 | -0.323 ± 0.098
GUAAAGCAAUAUUACGACCA | -0.123 ± 0.093 | 0.27 ± 0.13
GUAAAGCAAUAUUACGACGG | -3.85 ± 0.29 | -2.28 ± 0.23
GUAAAGCAAUAUUACGACUC | 0.441 ± 0.1 | 1.06 ± 0.15
GUAAAGCAAUAUUACGAUCU | 0.147 ± 0.057 | 0.161 ± 0.069
GUAAAGCAAUAUUACGAUUA | 0.307 ± 0.087 | 0.518 ± 0.1
GUAAAGCAAUAUUACGCCUA | -0.413 ± 0.14 | 0.493 ± 0.19

Sequence | self-splicing fitness (ln) (30 °C) | self-splicing fitness (ln) (37 °C)
GUAAAGCAAUAUUACGCGCA | 0.459 ± 0.16 | -0.0064 ± 0.17
GUAAAGCAAUAUUACGCGCG | -0.817 ± 0.14 | -0.615 ± 0.24
GUAAAGCAAUAUUACGCGUU | -1.65 ± 0.088 | -0.906 ± 0.099
GUAAAGCAAUAUUACGGCGC | 0.572 ± 0.13 | -0.000459 ± 0.14
GUAAAGCAAUAUUACGGCUA | 0.4 ± 0.052 | 0.518 ± 0.075
GUAAAGCAAUAUUACGGGUC | -1.78 ± 0.1 | -2.99 ± 0.12
GUAAAGCAAUAUUACGUAUU | -1.87 ± 0.076 | -1.69 ± 0.1
GUAAAGCAAUAUUACGUCUG | -1.56 ± 0.11 | 0.0989 ± 0.11
GUAAAGCAAUAUUACGUCUU | -0.455 ± 0.1 | 0.291 ± 0.12
GUAAAGCAAUAUUACGUGUC | -1.85 ± 0.06 | -1.14 ± 0.079
GUAAAGCAAUAUUACGUUCU | -0.888 ± 0.05 | -0.135 ± 0.071
GUACAGCAAUAUUACGACAC | -0.333 ± 0.099 | 0.291 ± 0.11
GUACAGCAAUAUUACGACGA | -1.54 ± 0.14 | -1.07 ± 0.12
GUACAGCAAUAUUACGAGCU | -2.18 ± 0.15 | -1.51 ± 0.15
GUACAGCAAUAUUACGAUUU | -1.28 ± 0.11 | -0.49 ± 0.089
GUACAGCAAUAUUACGCAGC | -2.41 ± 0.17 | -2.33 ± 0.23
GUACAGCAAUAUUACGCGUA | -3.44 ± 0.32 | -1.71 ± 0.24
GUACAGCAAUAUUACGCUGG | -2.55 ± 0.13 | -0.491 ± 0.12
GUACAGCAAUAUUACGGAGA | -3.87 ± 0.35 | -2.81 ± 0.21
GUACAGCAAUAUUACGGCCA | -0.539 ± 0.17 | -1.13 ± 0.17
GUACAGCAAUAUUACGGCUC | 0.189 ± 0.083 | 1.05 ± 0.097
GUACAGCAAUAUUACGGCUU | -0.512 ± 0.08 | 0.22 ± 0.09
GUACAGCAAUAUUACGGUAG | -1.31 ± 0.062 | -0.303 ± 0.068
GUAGAGCAAUAUUACGAAGC | -2.62 ± 0.24 | -0.723 ± 0.26

Sequence | self-splicing fitness (ln) (30 °C) | self-splicing fitness (ln) (37 °C)
GUAGAGCAAUAUUACGAGCA | -0.443 ± 0.17 | -0.601 ± 0.22
GUAGAGCAAUAUUACGAGUC | -2.19 ± 0.17 | -1.47 ± 0.24
GUAGAGCAAUAUUACGAGUU | -2.39 ± 0.2 | -1.85 ± 0.2
GUAGAGCAAUAUUACGCAUG | -1.94 ± 0.13 | -0.699 ± 0.19
GUAGAGCAAUAUUACGCCCA | -1.56 ± 0.2 | -0.471 ± 0.25
GUAGAGCAAUAUUACGCCCC | -1.39 ± 0.19 | -0.63 ± 0.28
GUAGAGCAAUAUUACGCCUG | -1.21 ± 0.31 | -0.594 ± 0.32
GUAGAGCAAUAUUACGCGGC | -3.37 ± 0.2 | -2.07 ± 0.18
GUAGAGCAAUAUUACGCGUU | -0.368 ± 0.065 | -0.909 ± 0.11
GUAGAGCAAUAUUACGCUGU | -1.88 ± 0.2 | -0.607 ± 0.22
GUAGAGCAAUAUUACGGGCA | -1.69 ± 0.15 | -0.35 ± 0.21
GUAGAGCAAUAUUACGGGUU | -4.13 ± 0.3 | -2.15 ± 0.22
GUAGAGCAAUAUUACGUAAU | -2.04 ± 0.13 | -0.878 ± 0.12
GUAGAGCAAUAUUACGUAGC | -1.16 ± 0.19 | –
GUAUAGCAAUAUUACGAGAU | -3 ± 0.29 | -1.22 ± 0.22
GUAUAGCAAUAUUACGAUCU | -1.16 ± 0.19 | 0.209 ± 0.21
GUAUAGCAAUAUUACGAUGU | -1.07 ± 0.12 | -0.00633 ± 0.17
GUAUAGCAAUAUUACGAUUU | -1.63 ± 0.11 | 0.247 ± 0.13
GUAUAGCAAUAUUACGCAAA | -3.07 ± 0.29 | -1.7 ± 0.25
GUAUAGCAAUAUUACGCACU | -1.9 ± 0.16 | -0.384 ± 0.14
GUAUAGCAAUAUUACGCCCC | -1.21 ± 0.2 | -0.594 ± 0.29
GUAUAGCAAUAUUACGCCCU | -0.766 ± 0.2 | 0.0529 ± 0.26
GUAUAGCAAUAUUACGCUCU | -1.76 ± 0.13 | -1.23 ± 0.15
GUAUAGCAAUAUUACGGAAG | – | -1.92 ± 0.27

Sequence | self-splicing fitness (ln) (30 °C) | self-splicing fitness (ln) (37 °C)
GUAUAGCAAUAUUACGGCGC | -0.053 ± 0.11 | -0.157 ± 0.12
GUAUAGCAAUAUUACGGCGU | -0.696 ± 0.13 | 0.267 ± 0.19
GUAUAGCAAUAUUACGGCUG | -1.2 ± 0.079 | -0.532 ± 0.097
GUAUAGCAAUAUUACGUAUG | -3.06 ± 0.15 | -1.93 ± 0.15
GUAUAGCAAUAUUACGUCAC | -3 ± 0.29 | -1.7 ± 0.26
GUAUAGCAAUAUUACGUCUA | -0.881 ± 0.17 | -1.01 ± 0.18
GUAUAGCAAUAUUACGUGGA | -3.62 ± 0.28 | -2.23 ± 0.18
GUAUAGCAAUAUUACGUUAG | -2.87 ± 0.21 | -1.07 ± 0.22
GUAUAGCAAUAUUACGUUGC | -2.83 ± 0.26 | –
GUCAAGCAAUAUUACGAACU | -2.42 ± 0.11 | -1.38 ± 0.12
GUCAAGCAAUAUUACGAAGC | -3.84 ± 0.27 | -2.54 ± 0.2
GUCAAGCAAUAUUACGACAG | -4.39 ± 0.33 | -2.93 ± 0.33
GUCAAGCAAUAUUACGACAU | -1.673 ± 0.012 | -0.579 ± 0.032
GUCAAGCAAUAUUACGAGAA | -3.59 ± 0.36 | -1.83 ± 0.2
GUCAAGCAAUAUUACGAGCU | -3.49 ± 0.17 | -1.85 ± 0.15
GUCAAGCAAUAUUACGAUAC | -3.1 ± 0.14 | -1.16 ± 0.09
GUCAAGCAAUAUUACGAUAU | -1.28 ± 0.07 | -0.525 ± 0.078
GUCAAGCAAUAUUACGAUGG | -4.88 ± 0.38 | -3.68 ± 0.27
GUCAAGCAAUAUUACGCAUA | -1.58 ± 0.063 | -0.367 ± 0.06
GUCAAGCAAUAUUACGCCUC | -1.25 ± 0.25 | 0.644 ± 0.41
GUCAAGCAAUAUUACGCUUA | -2.07 ± 0.14 | -0.67 ± 0.12
GUCAAGCAAUAUUACGGAGA | -3.61 ± 0.26 | -3.41 ± 0.39
GUCAAGCAAUAUUACGGAUC | -2.77 ± 0.1 | -1.09 ± 0.093
GUCAAGCAAUAUUACGGCAC | -1.35 ± 0.16 | 0.15 ± 0.22
